{"source": "patent US20190194334A1", "target": "cell surface (plasma membrane) nucleolin of human tumor cells (human) (UniProt P19338)", "sequence (P19338 2-710 limits assumed)": "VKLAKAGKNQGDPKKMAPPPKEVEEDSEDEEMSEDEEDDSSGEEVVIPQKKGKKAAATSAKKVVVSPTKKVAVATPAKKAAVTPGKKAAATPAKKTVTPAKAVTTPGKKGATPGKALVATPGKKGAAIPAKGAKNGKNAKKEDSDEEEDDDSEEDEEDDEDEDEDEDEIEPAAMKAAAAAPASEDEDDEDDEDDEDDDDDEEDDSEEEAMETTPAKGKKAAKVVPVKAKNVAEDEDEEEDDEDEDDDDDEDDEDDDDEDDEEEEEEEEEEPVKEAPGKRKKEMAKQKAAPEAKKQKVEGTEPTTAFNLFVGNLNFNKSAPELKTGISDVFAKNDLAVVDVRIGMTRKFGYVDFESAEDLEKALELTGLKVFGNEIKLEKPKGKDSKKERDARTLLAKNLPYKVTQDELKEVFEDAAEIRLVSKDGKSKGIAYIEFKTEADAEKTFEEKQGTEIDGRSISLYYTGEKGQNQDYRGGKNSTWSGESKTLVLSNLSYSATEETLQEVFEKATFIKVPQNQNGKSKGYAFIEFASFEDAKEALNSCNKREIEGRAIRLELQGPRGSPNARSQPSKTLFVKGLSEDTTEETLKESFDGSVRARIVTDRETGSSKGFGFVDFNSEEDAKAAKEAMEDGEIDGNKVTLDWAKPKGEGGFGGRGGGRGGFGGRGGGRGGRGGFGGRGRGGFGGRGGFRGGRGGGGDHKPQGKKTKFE", "assay": "flow cytometry of non-permeabilized MCF-7 cells, dot plot of side scatter against FITC fluorescence [B]", "data": [{"substance": "Control IgG-FITC (antibody)", "values": [{"measurement": "percent of cells in the FITC-positive gate", "value": 1.5, "unit": "%"}]}]}
